Assay results: the supplement of paper PMC10567573

B1: KRT33B (parent)
chain: PAVDLNQVLNETRNQYEALVETNR

Variants of: B1
Assay: protein stability index of a GFP-peptide fusion (GPS, HEK-293T) (PSI 1-6); higher = more stable
Conditions: c terminus: a fixed tail appended
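Further: lentivirally expressed fusions sorted by FACS into six bins by GFP to DsRed ratio, PSI derived from sequencing read proportions per bin multiplied by bin number.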

Protein stability index: each site, then its substitutions
N10: S 3.31, G 4.34, K 2.74, R 2.76, P 4.84, D 3.3, A 2.98, F 2.44, Y 2.47, Q 2.58, C 3.59, T 2.67, M 2.23, L 2.56, E 2.09, I 2.64, W 2.37, V 3.22, H 3.74
D4: T 3.08, C 3.88, R 3.76, N 4.46, H 4.22, A 3.94, Y 3.44, E 3.86, L 3.55, S 2.74, V 3.99, K 4, M 4.15, P 3.74, Q 4.31, I 3.41, F 2.82, G 4.02, W 2.64
E11: L 3.81, R 4.02, D 3.77, V 3.88, T 4.1, Y 3.85, S 3.62, M 3.31, H 4.13, C 4.3, Q 4.29, K 3.85, W 3.38, A 3.63, G 3.85, F 3.84, I 3.97, P 4.27, N 3.94
Q7: K 3.91, V 3.86, Y 3.83, C 3.57, H 4.38, N 4.33, I 3.55, E 3.11, W 4.22, S 4.01, F 3.79, L 4.06, M 4.24, A 3.27, T 2.97, P 4.78, G 4.59, D 3.73, R 3.95
A18: I 3.55, C 3.83, H 4.09, M 3.55, L 3.59, K 2.69, F 3.48, Q 2.96, G 4.48, E 3.58, N 3.89, P 4.28, R 2.53, D 4.43
N14: P 4.43, F 3.54, M 2.05, C 2.82, T 3.21, A 2.25, L 2.07, V 3.3, Q 2.57, H 3.53, R 2.81, S 3.04, K 2.63, E 2.68, D 3.59, I 2.02, W 2.55, Y 3.42, G 3.32
V8: F 3.78, W 3.42, A 3.84, P 5.14, D 4.77, K 4.56, G 4.91, T 4.41, N 4.83, R 4.93, H 4.05, C 3.71, Q 4.64, I 2.98, Y 2.49, M 2.66, E 4.7, L 1.45, S 4.43
E17: A 3.65, D 4.23, N 3.61, Y 3.09, G 3.91, K 3.48, R 3.96, H 3.9, W 3.54, T 3.62, L 3.73, S 4.24, P 4.39, F 2.9, M 3.55, Q 4.4, I 3.13, C 3.65, V 3.71
Q15: N 4.38, E 4.61, I 3.44, V 3.82, D 4.33, P 4.39, Y 3.23, A 3.84, W 2.86, C 3.87, R 4.37, M 1.6, K 4.06, L 2.04, T 4.22, S 3.95, G 4.45, F 2.72, H 3.95
N6: K 3.27, P 4.33, Q 2.83, T 3.43, V 2.43, M 1.34, F 2.31, G 4.3, E 1.97, Y 2.64, A 2.77, I 2.05, H 2.97, S 3.54, L 1.71, R 3.13, D 2.8, W 1.82, C 2.56
A2: L 3.25, K 3.87, R 3.57, V 3.11, M 2.4, S 3.23, D 4.82, W 1.59, E 2.26, T 3.52, C 2.87, P 3.14, G 3.95, F 2.39, Y 2.02, Q 3.11, I 2.84, H 3.93, N 4.4
V3: S 3.64, G 4.65, E 4.05, Y 3.56, H 4.33, I 3.77, A 3.85, C 2.81, N 4.25, T 3.87, F 4.36, W 4.12, R 3.4, M 2.7, P 4.99, D 4.77, K 3.83, Q 3.29
T12: K 4.41, R 4.89, C 3.24, I 2.41, E 4.5, G 4.32, S 3.8, H 2.84, M 3.4, N 4.11, Q 2.85, A 2.16, W 3.09, P 4.52, F 1.85, D 4.61, Y 2.77
Y16: R 5.09, I 4.17, P 5.06, F 3.5, H 5.02, N 5.25, V 4.92, G 5.21, K 4.8, Q 5.29, T 5.15, L 4.37, E 4.85, M 4.39, D 4.98, W 3.89, S 5.12, A 5.14, C 4.57
P1: R 3.7, W 3.26, S 4.42, D 4.32, Q 3.26, L 3.46, I 2.69, C 2.89, H 4.02, Y 3.33, K 3.66, M 3.71, G 4.39, A 3.25, F 2.78, E 2.98, V 3.15, N 4.23, T 3.72
R13: N 5.01, W 3.92, H 4.76, T 4.59, V 4.15, K 3.03, L 3.46, G 4.35, D 4.93, Q 4.32, P 5.18, A 4.35, S 4.8, M 3.12, I 3.32, C 4.38, E 4.86, F 4.15, Y 3.69
L5: I 3.47, V 3.02, S 4.78, G 5.15, T 4.48, H 3.83, D 4.64, C 3.97, F 3.38, M 4, W 2.52, R 4.4, Q 4.78, N 5.02, P 4.03, E 4.53, Y 3.44, K 4.79, A 3.8
L9: R 4.36, S 4.96, D 4.52, Q 4.24, T 4.61, A 5.16, K 5.09, I 3.55, N 5.13, E 4.93, F 4.25, G 4.76, C 4.91, W 4.32, H 4.2, V 4.65, P 4.72, M 4.13, Y 4.53
